B1: N70VQ71T: mutated TriA variant of SEQ ID NO: 2 (protein)
chain: MQTLSIQHGTLVTMDQYRRVLGDSWVHVQDGRIVALGVHAESVPPPADRVIDARGKVVLPGFINAHTHVVTILLRGGPSHGRQLYDWLFNVLYPGQKAMRPEDVAVAVRLYCAEAVRSGITTINDNADSAIYPGNIEAAMAVYGEVGVRVVYARMFFDRMDGRIQGYVDALKARSPQVELCSIMEETAVAKDRITALSDQYHGTAGGRISVWPAPAITPAVTVEGMRWAQAFARDRAVMWTLHMAESDHDERLHWMSPAEYMECYGLLDERLQVAHCVYFDRKDVRLLHRHNVKVASQVVSNAYLGSGVAPVPEMVERGMAVGIGTDDGNCNDSVNMIGDMKFMAHIHRAVHRDADVLTPEKILEMATIDGARSLGMDHEIGSIETGKRADLILLDLRHPQTTPHHHLAATIVFQAYGNEVDTVLIDGNVVMENRRLSFLPPERELAFLEEAQSRATAILQRANMVANPAWRSL
modifications: Pseudomonas
B2: L88AL92AY93V: mutated TriA variant of SEQ ID NO: 2 (protein)
chain: MQTLSIQHGTLVTMDQYRRVLGDSWVHVQDGRIVALGVHAESVPPPADRVIDARGKVVLPGFINAHTHVNQILLRGGPSHGRQLYDWAFNVAVPGQKAMRPEDVAVAVRLYCAEAVRSGITTINDNADSAIYPGNIEAAMAVYGEVGVRVVYARMFFDRMDGRIQGYVDALKARSPQVELCSIMEETAVAKDRITALSDQYHGTAGGRISVWPAPAITPAVTVEGMRWAQAFARDRAVMWTLHMAESDHDERLHWMSPAEYMECYGLLDERLQVAHCVYFDRKDVRLLHRHNVKVASQVVSNAYLGSGVAPVPEMVERGMAVGIGTDDGNCNDSVNMIGDMKFMAHIHRAVHRDADVLTPEKILEMATIDGARSLGMDHEIGSIETGKRADLILLDLRHPQTTPHHHLAATIVFQAYGNEVDTVLIDGNVVMENRRLSFLPPERELAFLEEAQSRATAILQRANMVANPAWRSL
modifications: Pseudomonas
B3: L88AL92AY93L: mutated TriA variant of SEQ ID NO: 2 (protein)
chain: MQTLSIQHGTLVTMDQYRRVLGDSWVHVQDGRIVALGVHAESVPPPADRVIDARGKVVLPGFINAHTHVNQILLRGGPSHGRQLYDWAFNVALPGQKAMRPEDVAVAVRLYCAEAVRSGITTINDNADSAIYPGNIEAAMAVYGEVGVRVVYARMFFDRMDGRIQGYVDALKARSPQVELCSIMEETAVAKDRITALSDQYHGTAGGRISVWPAPAITPAVTVEGMRWAQAFARDRAVMWTLHMAESDHDERLHWMSPAEYMECYGLLDERLQVAHCVYFDRKDVRLLHRHNVKVASQVVSNAYLGSGVAPVPEMVERGMAVGIGTDDGNCNDSVNMIGDMKFMAHIHRAVHRDADVLTPEKILEMATIDGARSLGMDHEIGSIETGKRADLILLDLRHPQTTPHHHLAATIVFQAYGNEVDTVLIDGNVVMENRRLSFLPPERELAFLEEAQSRATAILQRANMVANPAWRSL
modifications: Pseudomonas
B4: Y85LL88AL92AY93LQ96TD128G: mutated TriA variant of SEQ ID NO: 2 (protein)
chain: MQTLSIQHGTLVTMDQYRRVLGDSWVHVQDGRIVALGVHAESVPPPADRVIDARGKVVLPGFINAHTHVNQILLRGGPSHGRQLLDWAFNVALPGTKAMRPEDVAVAVRLYCAEAVRSGITTINDNAGSAIYPGNIEAAMAVYGEVGVRVVYARMFFDRMDGRIQGYVDALKARSPQVELCSIMEETAVAKDRITALSDQYHGTAGGRISVWPAPAITPAVTVEGMRWAQAFARDRAVMWTLHMAESDHDERLHWMSPAEYMECYGLLDERLQVAHCVYFDRKDVRLLHRHNVKVASQVVSNAYLGSGVAPVPEMVERGMAVGIGTDDGNCNDSVNMIGDMKFMAHIHRAVHRDADVLTPEKILEMATIDGARSLGMDHEIGSIETGKRADLILLDLRHPQTTPHHHLAATIVFQAYGNEVDTVLIDGNVVMENRRLSFLPPERELAFLEEAQSRATAILQRANMVANPAWRSL
modifications: Pseudomonas
B5: Y85LL88AL92AY93L: mutated TriA variant of SEQ ID NO: 2 (protein)
chain: MQTLSIQHGTLVTMDQYRRVLGDSWVHVQDGRIVALGVHAESVPPPADRVIDARGKVVLPGFINAHTHVNQILLRGGPSHGRQLLDWAFNVALPGQKAMRPEDVAVAVRLYCAEAVRSGITTINDNADSAIYPGNIEAAMAVYGEVGVRVVYARMFFDRMDGRIQGYVDALKARSPQVELCSIMEETAVAKDRITALSDQYHGTAGGRISVWPAPAITPAVTVEGMRWAQAFARDRAVMWTLHMAESDHDERLHWMSPAEYMECYGLLDERLQVAHCVYFDRKDVRLLHRHNVKVASQVVSNAYLGSGVAPVPEMVERGMAVGIGTDDGNCNDSVNMIGDMKFMAHIHRAVHRDADVLTPEKILEMATIDGARSLGMDHEIGSIETGKRADLILLDLRHPQTTPHHHLAATIVFQAYGNEVDTVLIDGNVVMENRRLSFLPPERELAFLEEAQSRATAILQRANMVANPAWRSL
modifications: Pseudomonas
B6: Y85LL88AL92AY93V: mutated TriA variant of SEQ ID NO: 2 (protein)
chain: MQTLSIQHGTLVTMDQYRRVLGDSWVHVQDGRIVALGVHAESVPPPADRVIDARGKVVLPGFINAHTHVNQILLRGGPSHGRQLLDWAFNVAVPGQKAMRPEDVAVAVRLYCAEAVRSGITTINDNADSAIYPGNIEAAMAVYGEVGVRVVYARMFFDRMDGRIQGYVDALKARSPQVELCSIMEETAVAKDRITALSDQYHGTAGGRISVWPAPAITPAVTVEGMRWAQAFARDRAVMWTLHMAESDHDERLHWMSPAEYMECYGLLDERLQVAHCVYFDRKDVRLLHRHNVKVASQVVSNAYLGSGVAPVPEMVERGMAVGIGTDDGNCNDSVNMIGDMKFMAHIHRAVHRDADVLTPEKILEMATIDGARSLGMDHEIGSIETGKRADLILLDLRHPQTTPHHHLAATIVFQAYGNEVDTVLIDGNVVMENRRLSFLPPERELAFLEEAQSRATAILQRANMVANPAWRSL
modifications: Pseudomonas
B7: Y85LL88AL92AY93VQ96TD128G: mutated TriA variant of SEQ ID NO: 2 (protein)
chain: MQTLSIQHGTLVTMDQYRRVLGDSWVHVQDGRIVALGVHAESVPPPADRVIDARGKVVLPGFINAHTHVNQILLRGGPSHGRQLLDWAFNVAVPGTKAMRPEDVAVAVRLYCAEAVRSGITTINDNAGSAIYPGNIEAAMAVYGEVGVRVVYARMFFDRMDGRIQGYVDALKARSPQVELCSIMEETAVAKDRITALSDQYHGTAGGRISVWPAPAITPAVTVEGMRWAQAFARDRAVMWTLHMAESDHDERLHWMSPAEYMECYGLLDERLQVAHCVYFDRKDVRLLHRHNVKVASQVVSNAYLGSGVAPVPEMVERGMAVGIGTDDGNCNDSVNMIGDMKFMAHIHRAVHRDADVLTPEKILEMATIDGARSLGMDHEIGSIETGKRADLILLDLRHPQTTPHHHLAATIVFQAYGNEVDTVLIDGNVVMENRRLSFLPPERELAFLEEAQSRATAILQRANMVANPAWRSL
modifications: Pseudomonas
B8: Y85LL88AF89AL92AY93LQ96TD128G: mutated TriA variant of SEQ ID NO: 2 (protein)
chain: MQTLSIQHGTLVTMDQYRRVLGDSWVHVQDGRIVALGVHAESVPPPADRVIDARGKVVLPGFINAHTHVNQILLRGGPSHGRQLLDWAANVALPGTKAMRPEDVAVAVRLYCAEAVRSGITTINDNAGSAIYPGNIEAAMAVYGEVGVRVVYARMFFDRMDGRIQGYVDALKARSPQVELCSIMEETAVAKDRITALSDQYHGTAGGRISVWPAPAITPAVTVEGMRWAQAFARDRAVMWTLHMAESDHDERLHWMSPAEYMECYGLLDERLQVAHCVYFDRKDVRLLHRHNVKVASQVVSNAYLGSGVAPVPEMVERGMAVGIGTDDGNCNDSVNMIGDMKFMAHIHRAVHRDADVLTPEKILEMATIDGARSLGMDHEIGSIETGKRADLILLDLRHPQTTPHHHLAATIVFQAYGNEVDTVLIDGNVVMENRRLSFLPPERELAFLEEAQSRATAILQRANMVANPAWRSL
modifications: Pseudomonas
B9: N70TQ71V: mutated TriA variant of SEQ ID NO: 2 (protein)
chain: MQTLSIQHGTLVTMDQYRRVLGDSWVHVQDGRIVALGVHAESVPPPADRVIDARGKVVLPGFINAHTHVTVILLRGGPSHGRQLYDWLFNVLYPGQKAMRPEDVAVAVRLYCAEAVRSGITTINDNADSAIYPGNIEAAMAVYGEVGVRVVYARMFFDRMDGRIQGYVDALKARSPQVELCSIMEETAVAKDRITALSDQYHGTAGGRISVWPAPAITPAVTVEGMRWAQAFARDRAVMWTLHMAESDHDERLHWMSPAEYMECYGLLDERLQVAHCVYFDRKDVRLLHRHNVKVASQVVSNAYLGSGVAPVPEMVERGMAVGIGTDDGNCNDSVNMIGDMKFMAHIHRAVHRDADVLTPEKILEMATIDGARSLGMDHEIGSIETGKRADLILLDLRHPQTTPHHHLAATIVFQAYGNEVDTVLIDGNVVMENRRLSFLPPERELAFLEEAQSRATAILQRANMVANPAWRSL
modifications: Pseudomonas
B10: Y85LL88AF89AL92AY93VQ96TD128G: mutated TriA variant of SEQ ID NO: 2 (protein)
chain: MQTLSIQHGTLVTMDQYRRVLGDSWVHVQDGRIVALGVHAESVPPPADRVIDARGKVVLPGFINAHTHVNQILLRGGPSHGRQLLDWAANVAVPGTKAMRPEDVAVAVRLYCAEAVRSGITTINDNAGSAIYPGNIEAAMAVYGEVGVRVVYARMFFDRMDGRIQGYVDALKARSPQVELCSIMEETAVAKDRITALSDQYHGTAGGRISVWPAPAITPAVTVEGMRWAQAFARDRAVMWTLHMAESDHDERLHWMSPAEYMECYGLLDERLQVAHCVYFDRKDVRLLHRHNVKVASQVVSNAYLGSGVAPVPEMVERGMAVGIGTDDGNCNDSVNMIGDMKFMAHIHRAVHRDADVLTPEKILEMATIDGARSLGMDHEIGSIETGKRADLILLDLRHPQTTPHHHLAATIVFQAYGNEVDTVLIDGNVVMENRRLSFLPPERELAFLEEAQSRATAILQRANMVANPAWRSL
modifications: Pseudomonas

assay type: biochemical; details: pH 7.2
In short: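 E. coli resting cells expressing His-tagged TriA incubated with azines, melamine or atrazine. Enzyme in 25 mM sodium phosphate pH 7.2 at 30 °C, substrate 1–10 nM. Loss of parent and formation of OH-metabolite followed by UPLC-HR-MS; % degradation relative to empty-vector cells.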

Molecule | Degradation in % of 6-cyclopentyl-N4-(2,3,4,5,6-pentafluorophenyl)-1,3,5-triazine-2,4-diamine [%] | Degradation in % of Melamine [%]
B1 | 0 | 0
B2 | 25 | 0
B3 | 35 | 0
B4 | 12 | 0
B5 | 13 | 0
B6 | 13 | 0
B7 | 14 | 0
B8 | 9 | 0
B9 | 3 | 0
B10 | 13 | 0

— patent US11499162B2, “Plants having increased tolerance to herbicides” (BASF SE, priority 2016, dated 2022)
